Consider three substances from article PMC4641746 (Cell, 2015).

Test [1] addresses Y46K/V66D mutant of H84T BanLec (recombinant, His-tagged) (Musa acuminata). The test can be described thus: 15N NMR spin relaxation.
Test [2] concerns the target Y46K/V66D mutant of WT BanLec (recombinant, His-tagged) (Musa acuminata). Kind of test: 15N NMR spin relaxation.
The target of test [3] is T1, BanLec (banana lectin), recombinant His-tagged WT (Musa acuminata, UniProt O22321, H84T).
T1 sequence (O22321 1-141 H84T): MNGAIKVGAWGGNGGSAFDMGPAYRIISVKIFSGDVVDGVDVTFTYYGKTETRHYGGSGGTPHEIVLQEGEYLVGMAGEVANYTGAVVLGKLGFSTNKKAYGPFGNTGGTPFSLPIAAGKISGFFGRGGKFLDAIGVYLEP
The test can be described thus: isothermal titration calorimetry. In kind it is binding. Particulars: dimannoside linkage not printed in main text.

With “Y46K/V66D mutant of H84T BanLec (recombinant, His-tagged) (natural protein)”, in test [1], the stoichiometry N amounted to 2.

Turning to “Y46K/V66D mutant of WT BanLec (recombinant, His-tagged) (natural protein)”, in test [2], the stoichiometry N stood at 2.

Take dimannoside [M2]: the Ka in test [3] stood at 227.
